# Experimental data taken from the supplement of paper PMC10724198.
# ± gives the standard deviation of the averaged measurements.
# System: Saccharomyces cerevisiae
# Experiment: protein stability index of tFT-peptide fusion (C-terminal peptide) (PSI (0-1 scale)); higher = more stable (slower turnover)
# Conditions: genetic background: wild type; temperature: 30 C
# 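Further: PSI is a weighted mean of sequencing reads over stability bins, variants kept only with over 10 reads, mCherry proximal and sfGFP distal, peptide attached via GGGS linker.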
row,Sequence,protein stability index
1,RPPPPSPAPTPP,0.723 ± 0.045
2,RPPPRPPHPPPL,0.6791 ± 0.0048
3,RPPYIALAPSDR,0.694 ± 0.0097
4,RPPYRRSPPRSP,0.616 ± 0.019
5,RPRVETGGLPWV,0.703 ± 0.029
6,RPSHSRPITLPT,0.707 ± 0.12
7,RPSLPPSPPPPP,0.848 ± 0.22
8,RPSLTPSPPPFP,0.64 ± 0.018
9,RPSPSAQFITCA,0.646 ± 0.013
10,RPSVSNVSEAEE,0.6479 ± 0.0037
11,RPTPLSTPPPLG,0.644 ± 0.039
12,RPTQYIYGINET,0.6525 ± 0.0034
13,RQDGSPREGIRH,0.713 ± 0.04
14,RQKNKIATVVEE,0.664 ± 0.026
15,RQRSTGGISNRS,0.718 ± 0.043
16,RQSLEDSLLHQH,0.774 ± 0.081
17,RRAAVGGCLGGW,0.726 ± 0.017
18,RRAAYARVFCRI,0.641 ± 0.046
19,RRADFSWPVVVE,0.591 ± 0.022
20,RRARSAGADPRP,0.684 ± 0.02
21,RRDRRVGEGEGV,0.699 ± 0.059
22,RREKQKTPAKKT,0.634 ± 0.034
23,RRGEKKDEKGGR,0.67 ± 0.062

row,Sequence,protein stability index
1,RRGLHWQAVCRY,0.733 ± 0.023
2,RRGRNDLEESMR,0.702 ± 0.0078
3,RRGVAEGVDGEG,0.615 ± 0.0071
4,RRGYEVSSLSDD,0.672 ± 0.0042
5,RRHRPKNEVPLC,0.705 ± 0.029
6,RRIIISSSYIYE,0.672 ± 0.012
7,RRIQNHPDSTSA,0.696 ± 0.067
8,RRKGVAGKWARR,0.586 ± 0.058
9,RRKLMLWTSKLE,0.705 ± 0.05
10,RRLLLAGTQLYV,0.598 ± 0.073
11,RRLMMPSGQGLT,0.702 ± 0.031
12,RRLNNTPPVENC,0.753 ± 0.15
13,RRNDRKKKSIRI,0.684 ± 0.059
14,RRPAPTRPPHTK,0.711 ± 0.013
15,RRPLAPHPPLPP,0.678 ± 0.01
16,RRPLLSTPAPCS,0.755 ± 0.025
17,RRPRKSAAGLRG,0.768 ± 0.08
18,RRPRPRSGWILL,0.69 ± 0.047
19,RRRRSITEHRSS,0.69279 ± 0.00018
20,RRRSSRPAPPPL,0.698 ± 0.023
21,RRRTGRRNCTET,0.712 ± 0.038
22,RRSIAVEFSGTG,0.679 ± 0.041
23,RRSTIHSRLFGA,0.6786 ± 0.0041

row,Sequence,protein stability index
1,RRTKKERQKSWK,0.649 ± 0.038
2,RRVCLIASLWGC,0.625 ± 0.023
3,RRVELCWAAGVR,0.641 ± 0.025
4,RRVGVVAWGRGG,0.71 ± 0.01
5,RRVRGGAAEKET,0.723 ± 0.1
6,RSALFLLTLVPI,0.565 ± 0.018
7,RSDKRTRYRIII,0.751 ± 0.17
8,RSFFDRLNRSLS,0.666 ± 0.032
9,RSFYDNVLRPFK,0.776 ± 0.035
10,RSGENTVKPVRQ,0.658 ± 0.029
11,RSGGGRRGVGWV,0.641 ± 0.067
12,RSGGVRCNDVRR,0.675 ± 0.05
13,RSGSGGVAGRRE,0.692 ± 0.022
14,RSLLLINRPTPP,0.714 ± 0.015
15,RSLPSSPTPPED,0.755 ± 0.081
16,RSLVALSRRLRG,0.6374 ± 0.0023
17,RSLWGPRVGVFA,0.594 ± 0.014
18,RSPLNTAPLRNR,0.682 ± 0.025
19,RSPRSSSPHPIY,0.7649 ± 0.006
20,RSPSCSPSAVPL,0.738 ± 0.063
21,RSQIHEILLYLF,0.492 ± 0.082
22,RSQRRWCSKIRV,0.625 ± 0.095
23,RSRLPPPPLLFP,0.702 ± 0.048

row,Sequence,protein stability index
1,RSRLPTPRLYPP,0.708 ± 0.01
2,RSRPPPPPLLFP,0.701 ± 0.043
3,RSRSKKKKRKQY,0.671 ± 0.042
4,RSRTSKGGNFII,0.6766 ± 0.0053
5,RSSNRRAIRSHD,0.7106 ± 0.0019
6,RSTPRPSSRDSL,0.7789 ± 0.006
7,RSTQRWAVAWSG,0.678 ± 0.09
8,RSVPLLNPGFHY,0.663 ± 0.026
9,RSYSSTGAGDDK,0.721 ± 0.15
10,RTAGSARIESAL,0.645 ± 0.017
11,RTDALKVVADMI,0.682 ± 0.034
12,RTEMASLERKSF,0.696 ± 0.017
13,RTGGIVATRASE,0.779 ± 0.13
14,RTHPPADAWYLS,0.698 ± 0.035
15,RTPMAIDALCGS,0.637 ± 0.045
16,RTPPLPLLPPHP,0.788 ± 0.052
17,RTQKNMKKSYCG,0.63 ± 0.0075
18,RTQMLIIDKRNS,0.6437 ± 0.0028
19,RTRMSEGECIST,0.708 ± 0.053
20,RTRPAMSRCSKR,0.704 ± 0.045
21,RTRRRQELNHSK,0.735 ± 0.2
22,RTSNARLLPRIG,0.681 ± 0.034
23,RVCYVYIGVTMH,0.634 ± 0.19

row,Sequence,protein stability index
1,RVDRVFGGFGGS,0.724 ± 0.14
2,RVFGSFLSGEQF,0.70035 ± 0.00058
3,RVFTGLCRPFGV,0.736 ± 0.012
4,RVGERGEGGGVV,0.638 ± 0.014
5,RVGYVPNFFCVL,0.6254 ± 0.0038
6,RVIIWDRRFLAG,0.6793 ± 0.0026
7,RVIVRGREIEIV,0.6782 ± 0.0018
8,RVLDNYLTDYCL,0.675 ± 0.061
9,RVLPSDSPVAPA,0.667 ± 0.044
10,RVLRKIWEWKKG,0.685 ± 0.051
11,RVLRREKPVVHC,0.603 ± 0.008
12,RVLVRLFGRGKA,0.688 ± 0.025
13,RVLVSPPPPLPS,0.688 ± 0.026
14,RVMELEGRSKLK,0.633 ± 0.026
15,RVQAVTNKVAAR,0.692 ± 0.012
16,RVRCPVVSGGRG,0.707 ± 0.099
17,RVRSKNIKIRWK,0.798 ± 0.029
18,RVTRPSARLLSP,0.639 ± 0.084
19,RVVDAPPSGCRS,0.688 ± 0.037
20,RVVGCPPLLLPP,0.639 ± 0.035
21,RVWRLIGFHVSS,0.713 ± 0.012
22,RVYFGRPRSIVL,0.656 ± 0.025
23,RVYKCNMKNNSK,0.661 ± 0.018

row,Sequence,protein stability index
1,RWGANSVSLEGE,0.737 ± 0.02
2,RWGCVGWKVVGG,0.709 ± 0.1
3,RWGGGQRLSRGT,0.7082 ± 0.0037
4,RWGGWFCRLPIG,0.698 ± 0.05
5,RYGARAGPPVNL,0.68 ± 0.054
6,RYGHSVLQSGIS,0.73 ± 0.042
7,RYLSVPGLEIPK,0.677 ± 0.068
8,RYRPSPPPPPPH,0.762 ± 0.054
9,RYVSCLSIPCLL,0.6373 ± 0.0018
10,RYYNDKKEKNIL,0.706 ± 0.0085
11,SACRVGKSILDT,0.728 ± 0.057
12,SACVEQVHLRWF,0.642 ± 0.092
13,SAFFSAWVLVLD,0.555 ± 0.024
14,SAGAPRMPARGG,0.691 ± 0.071
15,SAKQTYFKRVAQ,0.66 ± 0.042
16,SALLLPRARPPD,0.634 ± 0.055
17,SALRALRPGSLP,0.806 ± 0.11
18,SALSKYFLSVRL,0.633 ± 0.012
19,SAPFSPSLTHHP,0.742 ± 0.14
20,SAPLVHASSSPQ,0.722 ± 0.042
21,SAPPPAPPPPPR,0.702 ± 0.027
22,SAQHPSTRHRPP,0.6 ± 0.035
23,SARLCPPRGGFR,0.748 ± 0.018

row,Sequence,protein stability index
1,SARLTPDLPAPS,0.642 ± 0.017
2,SARRAALGVWVV,0.636 ± 0.026
3,SASPHSPSPPSR,0.627 ± 0.079
4,SASRPRRWGLAR,0.609 ± 0.007
5,SASVACFCGLVV,0.7 ± 0.023
6,SATHLLADPAPG,0.661 ± 0.088
7,SATPSSLPLPPS,0.739 ± 0.029
8,SAVGRTYGVIII,0.673 ± 0.029
9,SAVRLGANLCRT,0.6979 ± 0.0057
10,SAVVPYLGWSPV,0.708 ± 0.015
11,SCAPRSPCTPPP,0.718 ± 0.015
12,SCDIFIYTHLVS,0.612 ± 0.031
13,SCFGVSRSAHFL,0.728 ± 0.027
14,SCFLAFSFLCLF,0.5 ± 0.0096
15,SCFLISIPLGFV,0.5678 ± 0.0055
16,SCGMDLALGYAV,0.689 ± 0.061
17,SCPPLKYNNKTY,0.66 ± 0.015
18,SCPTPRFPQCSS,0.633 ± 0.034
19,SCRLYIKVDKSA,0.6464 ± 0.0034
20,SCVDHLGCHSSG,0.739 ± 0.029
21,SCYLLDFGCIWV,0.646 ± 0.0083
22,SDFLTYAEARLD,0.72 ± 0.12
